Experimental data as given in paper PMC10341432, “Cross-Linking Mass Spectrometry on P-Glycoprotein” (International Journal of Molecular Sciences, 2023).

Key:
[1] = biological target: T1, P-glycoprotein (human), as expressed on NIH 3T3 MDR1 cells (human, UniProt P08183, N-glycans on ECL1); test: flow cytometry on cells; living NIH 3T3 MDR1 cells treated with 0, 50, 100 or 200 U/mL PNGase F; 10 µg/mL 15D3 or UIC2 for 30 min at 37 °C in glucose-PBS; Alexa-488 anti-mouse goat secondary antibody; conditions: one partner purified
T1 construct: P-glycoprotein (MDR1, ABCB1), human; integral membrane protein on the cell surface; Cell line a gift from M. Gottesman; also called Pgp; multi-drug resistance protein 1; source: NIH 3T3 MDR1 mouse fibroblasts, human Mdr1 gene-transduced, stably expressing; on living cells and in membrane preparation (Mem-PER Plus kit)
T1 sequence (P08183 whole entry): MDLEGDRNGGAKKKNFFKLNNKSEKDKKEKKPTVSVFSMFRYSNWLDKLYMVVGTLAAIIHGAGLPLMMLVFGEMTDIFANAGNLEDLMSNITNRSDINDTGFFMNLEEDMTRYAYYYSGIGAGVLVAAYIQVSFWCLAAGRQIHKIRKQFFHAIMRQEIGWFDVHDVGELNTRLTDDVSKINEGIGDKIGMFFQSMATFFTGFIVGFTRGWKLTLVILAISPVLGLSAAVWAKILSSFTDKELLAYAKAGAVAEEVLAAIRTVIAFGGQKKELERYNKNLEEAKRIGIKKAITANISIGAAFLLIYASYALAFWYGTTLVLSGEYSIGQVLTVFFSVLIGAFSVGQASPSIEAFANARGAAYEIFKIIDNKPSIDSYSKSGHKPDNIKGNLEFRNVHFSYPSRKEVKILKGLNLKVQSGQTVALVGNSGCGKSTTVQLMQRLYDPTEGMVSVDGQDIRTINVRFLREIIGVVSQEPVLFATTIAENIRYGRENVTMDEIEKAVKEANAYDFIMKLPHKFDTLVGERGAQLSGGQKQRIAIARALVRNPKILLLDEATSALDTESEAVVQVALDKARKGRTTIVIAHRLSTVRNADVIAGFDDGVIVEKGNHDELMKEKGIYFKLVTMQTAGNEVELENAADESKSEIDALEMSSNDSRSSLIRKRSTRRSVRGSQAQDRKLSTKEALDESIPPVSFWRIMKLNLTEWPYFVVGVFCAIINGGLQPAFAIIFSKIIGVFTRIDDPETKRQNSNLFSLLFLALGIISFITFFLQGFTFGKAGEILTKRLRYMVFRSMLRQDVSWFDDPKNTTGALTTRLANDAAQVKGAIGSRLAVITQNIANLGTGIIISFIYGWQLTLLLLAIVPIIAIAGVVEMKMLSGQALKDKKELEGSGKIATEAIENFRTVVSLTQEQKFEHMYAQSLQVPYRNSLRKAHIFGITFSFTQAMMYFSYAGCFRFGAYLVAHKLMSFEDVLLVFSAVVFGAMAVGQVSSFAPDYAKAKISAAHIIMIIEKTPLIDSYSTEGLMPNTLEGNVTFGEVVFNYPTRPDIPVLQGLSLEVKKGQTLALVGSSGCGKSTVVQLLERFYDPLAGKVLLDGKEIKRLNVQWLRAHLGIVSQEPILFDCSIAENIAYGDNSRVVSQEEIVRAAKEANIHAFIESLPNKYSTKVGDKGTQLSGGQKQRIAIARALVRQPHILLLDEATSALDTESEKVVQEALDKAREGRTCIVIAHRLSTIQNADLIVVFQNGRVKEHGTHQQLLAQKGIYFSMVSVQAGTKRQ

[2] = biological target: T2, P-glycoprotein (human) on NIH 3T3 MDR1 cells after PNGase F treatment (Homo sapiens, UniProt P08183, all N-linked oligosaccharides removed from ECL1 by PNGase F); test: as above; conditions: one partner purified
T2 construct: P-glycoprotein (MDR1, ABCB1), human; N-glycans of ECL1 removed on living cells; also called Pgp; deglycosylated Pgp; source: NIH 3T3 MDR1 mouse fibroblasts, human Mdr1 gene-transduced; living cells treated with PNGase F (50, 100 or 200 U/mL)
T2 sequence (P08183 whole entry): as above

B1: 15D3 mouse monoclonal anti-Pgp antibody (antibody, V domains shown)
VH: EVKVVESGGVLVRPGGSLKLSCAASGFTFSRYTMSWVRQTPEKRLEWVATISSGGGNTYYPDSVKGRFTVSRDNAMSSLYLQMSSLRSEDTALYYCARYGAGDAWFAYWGQGTLVTVSA
VL: ELAMTQTPLSLPVSLGDQASISCRSSQSIVHSTGNTYLEWYLQKPGQSPKLLIYKVSNRFSGVPDRFSGSGSGTDFTLKISRLEAEDLGVYYCFQGSHFPRTFGGGTRLEIK
notes: mouse IgG1 constant part; IgG1; also called 15D3 mAb; source: hybridoma (ATCC HB-11342) supernatant or mouse ascites, purified (Protein G)
binding result [1]: binds
binding result [2]: binds
